Data taken from patent publication US20120164123.

Molecular target: human neutrophil peptide-1 (HNP-1)
Sequence (chain, as listed by the source): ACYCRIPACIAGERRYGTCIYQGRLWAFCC

B1: arginine-specific mono-ADP-ribosyltransferase-1 (ART1), mART1 released from transfected NMU cells (protein)
chain: QSYSISQLDIFSQETPLDMAPASFDDQYAGCLADMTAALPDLNHSEFQANKVYADGWAQANNQWQERRAWGSVWGSLPPSPPGFRDEHGVALLAYTANSPLHKEFNAAVREAGRSRAHYLHHFSFKTLHFLLTEALQLLRSHRSRGCQQVYRGVHGLRFRPAGPGATVRLGGFASASLKNVAAQQFGEDTFFGIWTCLGAPIRGYSFFPEEEEVLIPPFETFQVINTSRPTQGPARIYLRALGKRSTYNCEYIKEKKCRSGPCWLGSS
- ADP-ribosylation of HNP-1 by ART1 in vitro (RP-HPLC and MS of the reaction products): HNP-1 was ADP-ribosylated in vitro using purified ART1
